# Experimental data as given in PMC3652857, “A Cryptic Targeting Signal Creates a Mitochondrial FEN1 Isoform with Tailed R-Loop Binding Properties”.
# B1: T1:U1:19DNA* equilibrating 5' DNA flap (structured_DNA)
# DNA 1: GTCGACCTGCAGCCCAAGCTTGCGTTGCTG
# DNA 2: CAGCAACGCAAGCTTGC
# DNA 3: ATGTGGAAAATCTCTAGCAGGCTGCAGGTCGAC
# B2: T2:U2:RNA44* 5' RNA flap (mixed)
# DNA 1: GCGATTATCCGTATCGGACGTAGGAAGCCTGCCATTTGATGGTC
# DNA 2: GACCATCAAATGGCAGGCTG
# RNA: UCAACGUGGGCAAAGAAUGUCCUACGUCCGAUACGGAUAAUCGC
# B3: U3:T2:RNA44* 5' RNA flap with 20 nt 3' flap (mixed)
# DNA 1: B2 DNA 1
# DNA 2: GACCATCAAATGGCAGGCTGAACGAACAAAGCGAAAGCG
# RNA: B2 RNA
# B4: T6:D1:RNA44* R-loop (mixed)
# DNA 1: CTGCGTCGGCTTAAGATGGTGCGATTATCCGTATCGGACGTAGGACATTCTTTGCCCACGTTGATGGGTAGATAGCCTAACCGG
# DNA 2: CCGGTTAGGCTATCTACCCATAAGTTTATTCCCTGCTCTTAGCAGATGGAGTCTGTGAACTGCAATCAATACCATCTTAAGCCGACGCAG
# RNA: B2 RNA
# Legend:
# FEN1 (FEN1-1.His) = FEN1 (FEN1-1.His) (human, UniProt P39748 1-380); assay: EMSA; 25 mM Tris pH 8.0, 1 mM DTT, 0.1 mg/ml BSA, 6% glycerol; 0.2 nM 32P substrate; 1 h on ice; 10% native PAGE in tris-borate; conditions: protein: recombinant; tags: His; label: 5'-32P on 19DNA; equilibrating double flap: 19 nt 5' DNA flap, 1 nt 3' flap
# Chain of FEN1 (FEN1-1.His) (P39748 whole entry): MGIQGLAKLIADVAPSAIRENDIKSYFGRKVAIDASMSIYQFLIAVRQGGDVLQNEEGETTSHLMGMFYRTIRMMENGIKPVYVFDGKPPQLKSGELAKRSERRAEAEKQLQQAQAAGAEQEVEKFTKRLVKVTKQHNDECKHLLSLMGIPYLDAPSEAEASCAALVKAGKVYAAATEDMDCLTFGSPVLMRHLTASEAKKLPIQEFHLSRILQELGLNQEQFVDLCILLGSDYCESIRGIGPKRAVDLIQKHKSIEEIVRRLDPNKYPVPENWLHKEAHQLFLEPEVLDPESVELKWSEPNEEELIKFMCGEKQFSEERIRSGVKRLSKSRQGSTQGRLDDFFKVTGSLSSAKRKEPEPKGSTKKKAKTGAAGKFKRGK
# FENMIT [1] = target: T1, FENMIT (human, UniProt P39748-2 1-316); assay: as above; conditions: protein: recombinant, tags: His
# T1 sequence (P39748 65-380): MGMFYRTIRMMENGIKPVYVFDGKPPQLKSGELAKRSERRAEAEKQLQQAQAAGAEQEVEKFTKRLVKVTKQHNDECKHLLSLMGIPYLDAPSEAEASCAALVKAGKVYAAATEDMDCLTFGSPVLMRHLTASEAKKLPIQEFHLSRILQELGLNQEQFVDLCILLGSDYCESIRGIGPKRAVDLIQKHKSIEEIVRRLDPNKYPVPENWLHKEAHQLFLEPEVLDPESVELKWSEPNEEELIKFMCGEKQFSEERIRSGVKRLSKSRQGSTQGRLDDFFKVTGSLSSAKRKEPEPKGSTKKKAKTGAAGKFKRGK
# FEN1 D181A = FEN1 D181A (human, UniProt P39748 1-380, D181A); assay: as above; conditions: protein: recombinant; tags: His; label: 5'-32P on 19DNA; equilibrating double flap: 19 nt 5' DNA flap, 1 nt 3' flap
# Chain of FEN1 D181A (P39748 whole entry D181A): as the sequence (P39748 whole entry) above, with D181A counted along it
# FENMIT [2] = target: T1, FENMIT; assay: EMSA; 1-50 nM FENMIT; 25 mM Tris pH 8.0, 1 mM DTT, 0.1 mg/ml BSA, 6% glycerol; 0.2 nM 32P substrate; 1 h on ice; 10% native PAGE in tris-borate; conditions: protein: recombinant; tags: His; label: 5'-32P; single strand
# FENMIT [3] = target: T1, FENMIT; assay: competition; 25 nM FENMIT; cold RNA44 0-5 nM; 25 mM Tris pH 8.0, 1 mM DTT, 0.1 mg/ml BSA, 6% glycerol; 0.2 nM 32P substrate; 1 h on ice; 10% native PAGE in tris-borate; conditions: protein: recombinant; tags: His; label: 5'-32P on RNA44; equilibrating full 5' RNA flap, 1 nt 3' DNA flap
# FENMIT [4] = target: T1, FENMIT; assay: EMSA; 1-50 nM FENMIT; equal to short 3' flap; 25 mM Tris pH 8.0, 1 mM DTT, 0.1 mg/ml BSA, 6% glycerol; 0.2 nM 32P substrate; 1 h on ice; 10% native PAGE in tris-borate; conditions: protein: recombinant; tags: His; label: 5'-32P on RNA44; 5' RNA flap with 20 nt 3' DNA flap
binder,measurement,setting,value
B1,binding result,FEN1 (FEN1-1.His),binds
same,binding result,"FENMIT [1]; label: 5'-32P on 19DNA, equilibrating double flap: 19 nt 5' DNA flap, 1 nt 3' flap",no binding
same,binding result,FEN1 D181A,binds
UCAACGUGGGCAAAGAAUGUCCUACGUCCGAUACGGAUAAUCGC (ssRNA) [RNA44 ssRNA],binding signal,FENMIT [2],3 fold lower affinity than RNA flap substrates
B2,binding signal,FENMIT [3],3 fold more cold RNA44 for half competition than labeled ssRNA needs
B3,binding result,FENMIT [4],binds
B4,binding result,"FENMIT [1]; label: 5'-32P on RNA44, R-loop without RNA flap",binds
